From patent publication US20040254341A1 (published 2004)
Non-standard residues stand in square brackets, D forms with d. No end group written: not given here. Nle = CCCC[C@H](N)C(=O)O

Molecular target: human Asp2 aspartyl protease (Hu-Asp2), purified enzyme used in the in vitro cleavage assays (human, UniProt P56817 46-456, limits assumed)
Test: cell-based or functional assay

human Asp2 aspartyl protease (Hu-Asp2), purified enzyme used in the in vitro cleavage assays, sequence (P56817 46-456 Q214H limits assumed): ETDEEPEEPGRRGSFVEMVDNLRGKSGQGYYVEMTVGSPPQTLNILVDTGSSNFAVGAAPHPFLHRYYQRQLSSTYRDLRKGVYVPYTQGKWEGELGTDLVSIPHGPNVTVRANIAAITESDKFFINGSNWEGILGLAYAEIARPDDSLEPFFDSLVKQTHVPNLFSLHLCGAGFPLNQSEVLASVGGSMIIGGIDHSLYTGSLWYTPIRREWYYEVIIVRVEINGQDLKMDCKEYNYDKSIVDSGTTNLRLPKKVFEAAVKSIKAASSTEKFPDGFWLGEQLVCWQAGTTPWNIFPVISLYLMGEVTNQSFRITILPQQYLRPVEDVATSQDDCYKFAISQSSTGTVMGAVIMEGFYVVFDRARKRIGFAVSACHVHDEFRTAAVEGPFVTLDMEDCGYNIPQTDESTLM

activity against wild-type [fold]	activity against wild type peptide [fold]	Binder	also measured
		KTISLDVEPS [KTISL-↓-DVEPS]	activity against wild-type peptide: ~35 fold
~40		SEVSYEAEFR [SEVSY-↓-EAEFR]	
	6	KTITLEVEPS [KTITL-↓-EVEPS]	
	~70	SEVSYEVEFR [SEVSY-↓-EVEFR]	
~9		SEVSYDAEFR [SEVSY-↓-DAEFR]	
		KTIN[Nle]DVDPS [KTINnle-↓-DVDPS]	activity against peptide #3 (SEQ ID NO:134): ~10 fold reduction
